The nature of this series: soluble on expression in E. coli; label from the status in PepcDB or PDB records.
Take “MSLENKETTTTTTTTNNGSDKKKRSLKIDLHTHILPKNWPNLKEKYGYGGWVSLDHHCSCKAKMMIDGKFFREIDSNCWDPDVRIQELNRDDVDIQVLSTVPVMFGYWAKPQDALDLAQYLNDHIAQVVSENPKRFIGLGSLPMQCTESSIQELRRCILELGLPGIQIGSNVNGKNLDDPSLFPIFEECEKLGAAVFIHPWEMVGKDRMPQYWLPWLVGMPAETCLAICSMIFGGVFQRLPNLKVCFAHGGGSFPFTIGRIEHGFNARPDLCAVVNPINPREYIGKFWVDSLVHDEEALKFLVNLMGEKKVTLGTDYPFPLGELVPGQLIESIKEFSETTKENLLGGNALEFLGLDPNKYLEGHHHHHH”: the “soluble on expression in E. coli” value is “soluble”. Next, “MRGASGGMIQCQYEVHISKNDTYSMDRPHFHEDIEIVLCIAGEGVFFLEPEVFPLYRGQLFLIDSSILHRSVANEEYRCMVFHISSEMLHEFSSLQSNFQARSKRSGLVATLTEEATKYLESLYGKLAEDFGNEFGGDIRQTITLLTFLLTCFSHFNEAEDGEVHTNPSLDKVAPILTYIQEHLGEAMTTQSIADAFYMSKYHLCHIFKEGTGFSLMDYVINCRILKARSLLRNGMRVQEVGENVGFRNNEHFIRTFKKLTGTPPKRYAMMYKDSDQNAQRELVVVEGKDGKIIEGIKA”: “not soluble”; “MKLKGKGIGKVVVEGEVIVSRKPLSFLGGVDPETGTITDPESDIKGESITGKILVFPKGKGSTVGSYILYALSKNGKGPKAIIVEEAEPIVTAGAIISGIPLITNVDISKLKTGMRVRINPQEGEVEILAEGNLLEHHHHHH”: “not soluble”. For “MGSDKIHHHHHHVLSNPSQVVLRNIELFESKNVLLINHECDLLATALLEDAAKVTTLALDFNHFQRIKSHENARLQCHFGHQLPSTQTFDAVVLFYPKSKSLAPYLLNLAGRHLIPGGELVIVGEKKGGIRSITKQLPDYFDGGIKLDNARHCMLYSSSLLSEAPEIKLSDWVKDYVLSTPQGELTICNLVGVFSEKRLDEGTELLLEHLPTLKGRVLDFGCGAGVITAALLKANPDLELECVDINAMALASCELTLAANGMQAKVYASDGLTQTQGMFDAIISNPPFHDGLDSTTEIATRFVQESEAQLKSGGIFQIVANRHLPYSDTIAKFFKTVNVAAENNKYKIYANRKA” the value was “not soluble”. For “MGHHHHHHSHMYKFCANALKVILSLRGGVKVYNKENLPADSGFVIACTHSGWVDVITLGVGILPYQIHYMAKKELFQNKWIGSFLKKIHAFPVDRENPGPSSIKTPIKLLKEGEIVGIFPSGTRTSEDVPLKRGAVTIAQMGKAPLVPAAYQGPSSGKELFKKGKMKLIIGEPLHQADFAHLPSKERLAAMTEALNQRIKELENKLDQL” the value was “soluble”; for “MPPKKDPKGGKAPPSKKKEGSGGGKAKKKKWSKGKVRDKLNNMVLFDQATYDKLYKEVITYKLITPSVVSERLKVRASLAKAGLKELQAKGLVKCVVHHHGQVVYTRATKEADVIVE”, “soluble”.

“MGSDKIHHHHHHMDTQQLYFLNDIGKQKPESIRNRSAACPFCDRENLTDILATEGSIIWLKNKFPTLKDTFQTVLIETDNCEDHIATYTEEHMRSLIRFSIKHWLNLQKNEEFTSVILYKNHGPFSGGSLHHAHMQIIGMKYVNYLDNVEQDNFQGVIVQKNEHIELNISDRPIIGFTEFNIIIEDIGCIDELANYIQQTVRYILTDFHKGCSSYNLFFYYLNEKIICKVVPRFVVSPLYVGYKIPQVSTKIEDVKIQLAAYFTKQNDAIIHKKIE”: the “soluble on expression in E. coli” value is listed as “not soluble”. Next, “MSLTPPRSLLHALKPFLEAGADKEALVFGAHRISFGDMAGHAAALAEVLRSKGVQKGDRVAALFPPRPEAILSLLACWLIGATWMGINPRYQRREQAQILADAGVKVLMSMTRIGKRDLEDDLASHETDLGFSVLRFAPAFAPAALPEKLPYDEVLRRWREATETLEPDSPSVVIYTSGSTGKPKGALITHAGLAFRSHTLHIDRFNLPAPTQLIDLPVNHIGALASGIGVAMASGGKMILSEQFDPGVTLRTAFAEKLAIISGVPAMLARLVEHPDFATSDLSSVKAISWGAGPINEAVLRKLLNATDALFSQQYGMTESNGPIVFTPPTRDVEVLLNTTGKPDPRLELRIADESGQPLPDGEEGEVQIRHPHPFAGYLGNAEASAAAFTADGFLHTGDLAMVREDGYLVFCGRSKEMYKSGGFNVYPREIEIALEAHPAIRAAAVLGVDDEQWGQVGHAFVELASPLTSDDITGWCKARLADFKVPKRVSVIDAMPRTPVDKVDRMQLAELAARGEGHHHHHH”: “soluble”; “MVESTTTIYDVARVAGVSMATVSRVVNGNANVKEKTRQKVLEAIAELDYRPNAVARGLASKRTTTVGVILPTITSTYFAAITRGVDDIASMYKYNMILANSDNDVEKEEKVLETFLSKQVDGIVYMGSSLDEKIRTSLKNSRTPVVLVGTIDGDKEIPSVNIDYHLAAYQSTKKLIDSGNKKIAYIMGSLKDVENTERMVGYQEALLEANIEFDENLVFEGNYSYEQGKALAERLLERGATSAVVSHDTVAVGLLSAMMDKGVKVPEDFEIISGANSPITQYTYPTLTSVNQPLYDLGAVAMRLLTKLMLKEDVEQNQLVLDHEIFSRRSTK”: “soluble”; “MSEELLQKFLTSIEQEDGIAEIGKKKKNKSAARRDNVKTILHAASKGQVQLSAEESYIVQKPSTSKGSDYIDDRLASQGFSLIDQARSFKPKDLKKRNLKYMKFQEGRRIDKKKGRILVQAHMQTKQDLKSLRKEKKAIIGVKEPRRLLPGQKKKQKDKSVFSDADFAQVAHVAKRINSMADHSFL”: “not soluble”. With “MGSDKIHHHHHHMDRYPPFGFVRAVPIASSGNMTGESISNIATALVVGGGIGGMATAISLAERGVTVDLVDLDPEWRVYGAGITITGPTLRAYRRLGMLDEIKHKGAITSKTRLFRYDGTHMLDLDEPVIEEGLPATGGIMRPVLHHIMQKRVRELEIPVRLGLTVDALENVQGGVDVRFSDRTARRYDLVVGADSVFSRVRDLAFAHMGPAQPTGQGCWRISIRKPPGLDMGEFFLGHANPCGITACGPDTVYMWMLTPHVERDSHMDDEELFVTLKALLADFGGNAGWIRDNMTREDWINYRPLAAALQPRDWFNGRIVLVGDAVHATTPHLASGAGMAVESGIVLAEELARAGDVESALRAYQERRFDRCRDVIETSVAVGRLQLEHGDPQVHAKMLEGALGRLNQPF”, the “soluble on expression in E. coli” value is on record as “not soluble”. For “MKLKSNNIYEKMNQYSVVGLSLAVIRDGKLDETAAFGTLESGTNRTVTIDSIFNSCSISKFITTILILTLSDLKIVHLDEDVNDRLTSWNIPTNLFTSQKKVTLRNLLSHQSGIIDPPNSFEHYLLAQGQPNMSELLAGKTLYCSVPIEVTYKPESEFHYSDANFCIIEILLEDITGKPFNLLLEESIFQPLQMKNSTIFSPEDIDKTDAFACGHNKDGTVTNEKYPFYPFAAASGIWTTPTDLSALVIEIIHSLQGKGKLKLSQKTVQDMISPQGCSKWTGLGVFLDDLNEDLQIYSLGWGVGFQCMMICYPYRGNGAIIMTNADLGVHQMEGIIGDVLKTLSL” the value was “not soluble”; for “SSKVEQLRAQLNERILVLDGGMGTMIQSYRLNEADFRGERFADWPCDLKGNNDLLVLSKPEVIAAIHNAYFEAGADIIETNTFNSTTIAMADYQMESLSAEINFAAAKLARACADEWTARTPEKPRYVAGVLGPTNRTASISPDVNDPAFRNITFDQLVAAYRESTKALVEGGADLILIETVFDTLNAKAAVFAVKTEFEALGVELPIMISGTITDASGRTLSGQTTEAFYNSLRHAEALTFGLNCALGPDELRQYVQELSRIAECYVTAHPNAGLPNAFGEYDLDADTMAKQIREWAEAGFLNIVGGCCGTTPQHIAAMSRAVEGLAPRKLPEIPVACRLSGLEPLNIGEDSLFVNVGERTNVTGSAKF”, “not soluble”. Next, “MASFVEMRKLAEAKVQNMIRTIVKPKEQNGNVEPKKEEDEKFESTYKQNENTQITPSSFGKRPLYSKVDINCDKWLMTLDEESRLKIDNPPSLVDGLSKETESELRYLGCELIQQGAILLKLPQTAAATGQILFQRYYYQKSFVRYHFEHAVQACLLLASKIEEEPRRPREVYNVFHRLERLHRLQQSGHDINKRLEAKHGSSILRCFG”: “not soluble”.

Values taken from the DeepSol protein solubility set.
